From publication PMC3050080

Key:
[1] = target: T1, TIA-1 RRM23 (UniProt P31483 104-288); assay: fluorescence anisotropy
T1 sequence: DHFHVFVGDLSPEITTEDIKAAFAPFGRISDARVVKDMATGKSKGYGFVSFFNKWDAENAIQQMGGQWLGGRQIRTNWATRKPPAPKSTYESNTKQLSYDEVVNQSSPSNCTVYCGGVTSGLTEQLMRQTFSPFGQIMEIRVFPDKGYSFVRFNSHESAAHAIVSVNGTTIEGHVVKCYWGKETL

[2] = target: T2, SXL RRM12 (UniProt P19339 122-294); assay: fluorescence anisotropy
T2 sequence: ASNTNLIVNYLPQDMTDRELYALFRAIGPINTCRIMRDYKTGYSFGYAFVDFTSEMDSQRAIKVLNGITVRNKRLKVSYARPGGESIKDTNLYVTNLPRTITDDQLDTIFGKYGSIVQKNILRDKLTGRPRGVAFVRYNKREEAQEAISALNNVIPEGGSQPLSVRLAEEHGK

B1: U20 (ssRNA)
RNA: UUUUUUUUUUUUUUUUUUUU
Kd [1]: 33 ± 6 nM | Kd [2]: 7 ± 3 nM
